{"source": "patent US20230398228A1", "about": "“ERIBULIN-BASED ANTIBODY-DRUG CONJUGATES AND METHODS OF USE” (EISAI R&D MANAGEMENT CO., LTD., priority 2016, published 2023)", "key": {"[1]": {"test_system": "SJSA-1 cells", "assay": "Serum stability assay, cytotoxicity readout on SJSA-1", "description": "(§1) Following incubation, samples were frozen and stored at −20° C. until evaluation in cytotoxicity and binding assays. For cytotoxicity analyses, samples were evaluated on IGROV1 and SJSA-1 cells, as detailed in section 1.4.1. For binding assessment, samples were evaluated using a solution-based MSD ECL assay.\n(§2) ER-001161319 is maytansine-based ADC comprising the same cleavable linker as VCP-eribulin, maleimido-PEG2-Val-Cit-pAB. PBS and serum controls were included to correct for any serum effects on assay performance."}, "[2]": {"test_system": "IGROV1 cells", "assay": "Crystal Violet cytotoxicity assay (Examples 1 and 2), IGROV1", "description": "(§3) Typically, test reagents were serial diluted 1:4 in 2 mL deep-well dilution plates, starting at 1 μM (10 dilutions total). 100 μL of diluted samples were added to the cell plates (starting concentration of test samples at 500 nM). […] Medium was discarded, plates were washed once with 200 μL DPBS, stained with 50 μL of 0.2% Crystal Violet solution at room temperature for 15 min, and then washed extensively with tap water. Plates were air-dried, and Crystal Violet was dissolved with 200 μL of 1% SDS solution. Plates were read at 570 nm. Data was analyzed using GraphPad Prism 6. Assays were performed using a seeding density of 1,000 cells per well and compound exposure was for a total of 5 days. When shorter-term exposure was desired, medium containing cytotoxic agents was removed after 4 hours and replaced with fresh growth medium prior to 5-day incubation. For OVCAR3, CaOV3, and NCI-H2110, cells were seeded at 3,000 cells/well and incubated for 5 days with ADC.\n(§4) In vitro potency of prepared ADCs was assessed using a Crystal Violet assay as detailed in section 1.4.1.\n(§5) SJSA-1 cells are a human osteosarcoma tumor cell line that are negative for folate receptor alpha.\nTypically, test reagents were serially-diluted 1:4 in 2 mL deep-well dilution plates, starting at 1 μM (10 dilutions total). […] Plates were read at 570 nm. Data was analyzed using GraphPad Prism 6."}, "[3]": {"test_system": "NCI-H2110 cells", "conditions": "read-out: IC50 on NCI-H2110; Example 1", "description": "as §3, §5\n(§6) Typically, test reagents were serially-diluted 1:4 in 2 mL deep-well dilution plates, starting at 1 μM (10 dilutions total). 100 μL of diluted samples were added to the cell plates (starting concentration of test samples at 100 nM). […] Medium was discarded, plates were washed once with 200 μL DPBS, stained with 50 μL of 0.2% Crystal Violet solution at room temperature for 15 min, and then washed extensively with tap water. Plates were air-dried, and Crystal Violet was dissolved with 200 μL of 1% SDS solution. Plates were read at 570 nm. Data was analyzed using GraphPad Prism 6."}, "[4]": {"test_system": "OVCAR3 cells", "assay": "Crystal Violet cytotoxicity assay (Examples 1 and 2), OVCAR3", "conditions": "read-out: Cytotoxicity (IC50) OVCAR3; OVCAR3 cells; mean of replicate experiments, where performed", "description": "as §3, §5\nTypically, test reagents were serially-diluted 1:4 in 2 mL deep-well dilution plates, starting at 1 μM (10 dilutions total). 100 μL of diluted samples were added to the cell plates (starting concentration of test samples at 100 nM). […] Plates were read at 570 nm. Data was analyzed using GraphPad Prism 6."}, "[5]": {"test_system": "SJSA-1 cells", "assay": "Crystal Violet cytotoxicity assay (Examples 1 and 2), SJSA-1", "description": "as §3, §4, §5, §6"}, "[6]": {"test_system": "IGROV1 cells", "assay": "Serum stability assay, cytotoxicity readout on IGROV1", "description": "as §1, §2"}, "[7]": {"conditions": "read-out: Cell-based cytotoxicity assay, EC50, Human Serum, 0 hr-PBS"}, "[8]": {"conditions": "read-out: Cell-based cytotoxicity assay, EC50, Human Serum, 0 hr-Serum"}, "[9]": {"conditions": "read-out: Cell-based cytotoxicity assay, EC50, Human Serum, 4 hr at 37° C."}, "[10]": {"conditions": "read-out: Cell-based cytotoxicity assay, EC50, Human Serum, 24 hr at 37° C."}, "[11]": {"conditions": "read-out: Cell-based cytotoxicity assay, EC50, Mouse Serum, 0 hr-Serum"}, "[12]": {"conditions": "read-out: Cell-based cytotoxicity assay, EC50, Mouse Serum, 4 hr at 37° C."}, "[13]": {"conditions": "read-out: Cell-based cytotoxicity assay, EC50, Mouse Serum, 24 hr at 37° C."}, "[14]": {"conditions": "read-out: Cell-based cytotoxicity assay, EC50, Mouse Serum, 48 hr at 37° C."}, "[15]": {"conditions": "read-out: Cell-based cytotoxicity assay, EC50, PBS, 0 hr-PBS"}, "[16]": {"conditions": "read-out: Cell-based cytotoxicity assay, EC50, PBS, 0 hr-Serum"}, "[17]": {"conditions": "read-out: Cell-based cytotoxicity assay, EC50, PBS, 4 hr at 37° C."}, "[18]": {"conditions": "read-out: Cell-based cytotoxicity assay, EC50, PBS, 24 hr at 37° C."}, "[19]": {"conditions": "read-out: Cell-based cytotoxicity assay, EC50, PBS, 48 hr at 37° C."}}, "note": "Where two headings read alike, the source gives them in different places."}
{"substance": "MORAb-003-PEG-pAB-duostatin 3 [M-0285]", "values": [{"measurement": "EC50", "setting": "[1]; [7]", "result": "> 10", "unit": "nM"}, {"measurement": "EC50", "setting": "[1]; [8]", "result": "> 10", "unit": "nM"}, {"measurement": "EC50", "setting": "[1]; [9]", "result": "> 10", "unit": "nM"}, {"measurement": "EC50", "setting": "[1]; [10]", "result": "> 10", "unit": "nM"}, {"measurement": "EC50", "setting": "[1]; read-out: Cell-based cytotoxicity assay, EC50, Human Serum, 48 hr at 37° C.", "result": "> 10", "unit": "nM"}, {"measurement": "EC50", "setting": "[1]; read-out: Cell-based cytotoxicity assay, EC50, Mouse Serum, 0 hr-PBS", "result": "> 10", "unit": "nM"}, {"measurement": "EC50", "setting": "[1]; [11]", "result": "> 10", "unit": "nM"}, {"measurement": "EC50", "setting": "[1]; [12]", "result": "> 10", "unit": "nM"}, {"measurement": "EC50", "setting": "[1]; [13]", "result": "> 10", "unit": "nM"}, {"measurement": "EC50", "setting": "[1]; [14]", "result": "> 10", "unit": "nM"}, {"measurement": "EC50", "setting": "[1]; [15]", "result": "> 10", "unit": "nM"}, {"measurement": "EC50", "setting": "[1]; [16]", "result": "> 10", "unit": "nM"}, {"measurement": "EC50", "setting": "[1]; [17]", "result": "> 10", "unit": "nM"}, {"measurement": "EC50", "setting": "[1]; [18]", "result": "> 10", "unit": "nM"}, {"measurement": "EC50", "setting": "[1]; [19]", "result": "> 10", "unit": "nM"}, {"measurement": "cytotoxicity and specificity on IGROV1 cell line, in words", "setting": "[2]; Example 1 screening, IGROV1 versus SJSA-1", "result": "specific cytotoxicity"}, {"measurement": "IC50", "setting": "[2]; read-out: Cytotoxicity (IC50) IGROV1, IGROV1 cells, mean of replicate experiments, where performed", "result": 0.3, "unit": "nM"}, {"measurement": "IC50", "setting": "[3]", "result": 14, "unit": "nM"}, {"measurement": "IC50", "setting": "[4]", "result": 8.8, "unit": "nM"}, {"measurement": "killing of FR-negative SJSA-1 cells (off-target), in words", "setting": "[5]; Example 1 screening", "result": "little cytotoxicity"}, {"measurement": "IC50", "setting": "[5]; read-out: Cytotoxicity (IC50) SJSA-1, SJSA-1 cells, mean of replicate experiments, where performed", "result": "> 100", "unit": "nM"}, {"measurement": "EC50", "setting": "[6]; [7]", "result": 0.089, "unit": "nM"}, {"measurement": "EC50", "setting": "[6]; [8]", "result": 0.078, "unit": "nM"}, {"measurement": "EC50", "setting": "[6]; [9]", "result": 0.075, "unit": "nM"}, {"measurement": "EC50", "setting": "[6]; [10]", "result": 0.074, "unit": "nM"}, {"measurement": "EC50", "setting": "[6]; [11]", "result": 0.049, "unit": "nM"}, {"measurement": "EC50", "setting": "[6]; [12]", "result": 0.049, "unit": "nM"}, {"measurement": "EC50", "setting": "[6]; [13]", "result": 0.044, "unit": "nM"}, {"measurement": "EC50", "setting": "[6]; [14]", "result": 0.051, "unit": "nM"}, {"measurement": "EC50", "setting": "[6]; [15]", "result": 0.074, "unit": "nM"}, {"measurement": "EC50", "setting": "[6]; [16]", "result": 0.063, "unit": "nM"}, {"measurement": "EC50", "setting": "[6]; [17]", "result": 0.065, "unit": "nM"}, {"measurement": "EC50", "setting": "[6]; [18]", "result": 0.059, "unit": "nM"}, {"measurement": "EC50", "setting": "[6]; [19]", "result": 0.043, "unit": "nM"}]}
